US20130012432A1 (Novo Nordisk, published 2013)
Positions of bridges follow the written chain, without caps; N, C: chain ends. Non-standard residues stand in square brackets, D forms with d. Groups on a side chain read outwards from the residue. Primed or numbered codes have the meaning given here. *: point of attachment. X2 = (2-(2-(16-(tetrazol-5-yl)hexadecanoylamino)ethoxy)ethoxy)acetyl, O=C(CCCCCCCCCCCCCCCc1nn[nH]n1)NCCOCCOCC(=O)*; X5 = NH(2-(2-(2-(17-carboxyheptadecanoylamino)ethoxy)ethoxy)ethyl), O=C(O)CCCCCCCCCCCCCCCCC(=O)NCCOCCOCCN*; X6 = (2-(2-(17-carboxyheptadecanoylamino)ethoxy)ethoxy)acetyl, O=C(O)CCCCCCCCCCCCCCCCC(=O)NCCOCCOCC(=O)*; X3 = (2-(2-(15-carboxypentadecanoylamino)ethoxy)ethoxy)acetyl, O=C(O)CCCCCCCCCCCCCCC(=O)NCCOCCOCC(=O)*; X4 = (2-(2-(16-carboxyhexadecanoylamino)ethoxy)ethoxy)acetyl, O=C(O)CCCCCCCCCCCCCCCC(=O)NCCOCCOCC(=O)*; biscarboxymethyl = Lys(biscarboxymethyl) = Nepsilon-bis(carboxymethyl)-L-lysine; Palmitoyl(16-(5-tetrazolyl)) = O=C(CCCCCCCCCCCCCCCc1nnn[nH]1)*; biscarboxymethyl(3) = Nepsilon-bis(carboxymethyl) on Lys; Lys(CH2CO2H)2 = N[C@@H](CCCCN(CC(=O)O)CC(=O)O)C(=O)O; C17 diacid = O=C(O)CCCCCCCCCCCCCCCC(=O)*; Hyp = O=C(O)[C@@H]1C[C@@H](O)CN1; Orn = NCCC[C@H](N)C(=O)O; Dab = NCC[C@H](N)C(=O)O; Dap = NC[C@H](N)C(=O)O; AEEA = NCCOCCOCC(=O)O

B1: Ac-c[Glu-His-D-Phe-Arg-Trp-Lys]-Pro-Pro-Arg-Asp-Lys(biscarboxymethyl)-Lys[(2-{2-[16-(tetrazol-5-yl)hexadecanoylamino]ethoxy}ethoxy)acetyl]-NH2 (peptide)
peptide: Ac-EH[dF]RWKPPRD[Lys(CH2CO2H)2]K([AEEA-Palmitoyl(16-(5-tetrazolyl))])-NH2
modifications: lactam 1-6
SMILES: CC(=O)N[C@H]1CCC(=O)NCCCC[C@@H](C(=O)N2CCC[C@H]2C(=O)N2CCC[C@H]2C(=O)N[C@@H](CCCNC(=N)N)C(=O)N[C@@H](CC(=O)O)C(=O)N[C@@H](CCCCN(CC(=O)O)CC(=O)O)C(=O)N[C@@H](CCCCNC(=O)COCCOCCNC(=O)CCCCCCCCCCCCCCCc2nnn[nH]2)C(N)=O)NC(=O)[C@H](Cc2c[nH]c3ccccc23)NC(=O)[C@H](CCCNC(=N)N)NC(=O)[C@@H](Cc2ccccc2)NC(=O)[C@H](Cc2c[nH]cn2)NC1=O
B2: Ac-c[Glu-His-D-Phe-Arg-Trp-Lys]-Hyp-Hyp-Arg-Asp-Lys(biscarboxymethyl)-Lys[(2-{2-[16-(tetrazol-5-yl)hexadecanoylamino]ethoxy}ethoxy)acetyl]-NH2 (peptide)
peptide: Ac-EH[dF]RWK[Hyp][Hyp]RD[Lys(CH2CO2H)2]K([AEEA-Palmitoyl(16-(5-tetrazolyl))])-NH2
modifications: lactam 1-6
SMILES: CC(=O)N[C@H]1CCC(=O)NCCCC[C@@H](C(=O)N2C[C@H](O)C[C@H]2C(=O)N2C[C@H](O)C[C@H]2C(=O)N[C@@H](CCCNC(=N)N)C(=O)N[C@@H](CC(=O)O)C(=O)N[C@@H](CCCCN(CC(=O)O)CC(=O)O)C(=O)N[C@@H](CCCCNC(=O)COCCOCCNC(=O)CCCCCCCCCCCCCCCc2nnn[nH]2)C(N)=O)NC(=O)[C@H](Cc2c[nH]c3ccccc23)NC(=O)[C@H](CCCNC(=N)N)NC(=O)[C@@H](Cc2ccccc2)NC(=O)[C@H](Cc2c[nH]cn2)NC1=O
B3: Ac-c[Orn-Glu-His-D-Phe-Arg-Trp-Gly-Asp]-Pro-Ser-Lys-Glu-Glu-Ser-Ser-Lys({2-[2-(16-carboxyhexadecanoylamino)ethoxy]ethoxy}acetyl)-NH2 (peptide)
peptide: Ac-[Orn]EH[dF]RWGDPSKEESSK(X4)-NH2
modifications: lactam 1-8
SMILES: CC(=O)N[C@H]1CCCNC(=O)C[C@@H](C(=O)N2CCC[C@H]2C(=O)N[C@@H](CO)C(=O)N[C@@H](CCCCN)C(=O)N[C@@H](CCC(=O)O)C(=O)N[C@@H](CCC(=O)O)C(=O)N[C@@H](CO)C(=O)N[C@@H](CO)C(=O)N[C@@H](CCCCNC(=O)COCCOCCNC(=O)CCCCCCCCCCCCCCCC(=O)O)C(N)=O)NC(=O)CNC(=O)[C@H](Cc2c[nH]c3ccccc23)NC(=O)[C@H](CCCNC(=N)N)NC(=O)[C@@H](Cc2ccccc2)NC(=O)[C@H](Cc2c[nH]cn2)NC(=O)[C@H](CCC(=O)O)NC1=O
B4: Ac-c[Orn-His-D-Phe-Arg-Trp-Glu]-Pro-Ser-Ser-Ser-Glu-Glu-Ser-Ser-Lys({2-[2-(16-carboxyhexadecanoylamino)ethoxy]ethoxy}acetyl)-NH2 (peptide)
peptide: Ac-[Orn]H[dF]RWEPSSSEESSK([AEEA-C17 diacid])-NH2
modifications: lactam 1-6
SMILES: CC(=O)N[C@H]1CCCNC(=O)CC[C@@H](C(=O)N2CCC[C@H]2C(=O)N[C@@H](CO)C(=O)N[C@@H](CO)C(=O)N[C@@H](CO)C(=O)N[C@@H](CCC(=O)O)C(=O)N[C@@H](CCC(=O)O)C(=O)N[C@@H](CO)C(=O)N[C@@H](CO)C(=O)N[C@@H](CCCCNC(=O)COCCOCCNC(=O)CCCCCCCCCCCCCCCC(=O)O)C(N)=O)NC(=O)[C@H](Cc2c[nH]c3ccccc23)NC(=O)[C@H](CCCNC(=N)N)NC(=O)[C@@H](Cc2ccccc2)NC(=O)[C@H](Cc2c[nH]cn2)NC1=O
B5: Ac-c[Orn-His-D-Phe-Arg-Trp-Glu]-Pro-Ser-Lys-Glu-Glu-Ser-Ser-Glu-Lys({2-[2-(16-carboxyhexadecanoylamino)ethoxy]ethoxy}acetyl)-NH2 (peptide)
peptide: Ac-[Orn]H[dF]RWEPSKEESSEK([AEEA-C17 diacid])-NH2
modifications: lactam 1-6
SMILES: CC(=O)N[C@H]1CCCNC(=O)CC[C@@H](C(=O)N2CCC[C@H]2C(=O)N[C@@H](CO)C(=O)N[C@@H](CCCCN)C(=O)N[C@@H](CCC(=O)O)C(=O)N[C@@H](CCC(=O)O)C(=O)N[C@@H](CO)C(=O)N[C@@H](CO)C(=O)N[C@@H](CCC(=O)O)C(=O)N[C@@H](CCCCNC(=O)COCCOCCNC(=O)CCCCCCCCCCCCCCCC(=O)O)C(N)=O)NC(=O)[C@H](Cc2c[nH]c3ccccc23)NC(=O)[C@H](CCCNC(=N)N)NC(=O)[C@@H](Cc2ccccc2)NC(=O)[C@H](Cc2c[nH]cn2)NC1=O
B6: Ac-c[Lys-His-D-Phe-Arg-Trp-Asp]-Pro-Ser-His-Glu-Lys(biscarboxymethyl)-Lys({2-[2-(16-carboxyhexadecanoylamino)ethoxy]ethoxy}acetyl)-NH2 (peptide)
peptide: Ac-KH[dF]RWDPSHE[Lys(CH2CO2H)2]K([AEEA-C17 diacid])-NH2
modifications: lactam 1-6
SMILES: CC(=O)N[C@H]1CCCCNC(=O)C[C@@H](C(=O)N2CCC[C@H]2C(=O)N[C@@H](CO)C(=O)N[C@@H](Cc2c[nH]cn2)C(=O)N[C@@H](CCC(=O)O)C(=O)N[C@@H](CCCCN(CC(=O)O)CC(=O)O)C(=O)N[C@@H](CCCCNC(=O)COCCOCCNC(=O)CCCCCCCCCCCCCCCC(=O)O)C(N)=O)NC(=O)[C@H](Cc2c[nH]c3ccccc23)NC(=O)[C@H](CCCNC(=N)N)NC(=O)[C@@H](Cc2ccccc2)NC(=O)[C@H](Cc2c[nH]cn2)NC1=O
B7: Ac-c[Lys-His-D-Phe-Arg-Trp-Glu]-Pro-Pro-His-Glu-Lys(biscarboxymethyl)-Lys({2-[2-(16-carboxyhexadecanoylamino)ethoxy]ethoxy}acetyl)-NH2 (peptide)
peptide: Ac-KH[dF]RWEPPHE[Lys(CH2CO2H)2]K([AEEA-C17 diacid])-NH2
modifications: lactam 1-6
SMILES: CC(=O)N[C@H]1CCCCNC(=O)CC[C@@H](C(=O)N2CCC[C@H]2C(=O)N2CCC[C@H]2C(=O)N[C@@H](Cc2c[nH]cn2)C(=O)N[C@@H](CCC(=O)O)C(=O)N[C@@H](CCCCN(CC(=O)O)CC(=O)O)C(=O)N[C@@H](CCCCNC(=O)COCCOCCNC(=O)CCCCCCCCCCCCCCCC(=O)O)C(N)=O)NC(=O)[C@H](Cc2c[nH]c3ccccc23)NC(=O)[C@H](CCCNC(=N)N)NC(=O)[C@@H](Cc2ccccc2)NC(=O)[C@H](Cc2c[nH]cn2)NC1=O
B8: Ac-c[Lys-His-D-Phe-Arg-Trp-Asp]-Pro-Pro-Arg-Asp-Lys(biscarboxymethyl)-Lys[(2-{2-[16-(tetrazol-5-yl)hexadecanoylamino]ethoxy}ethoxy)acetyl]-NH2 (peptide)
peptide: Ac-KH[dF]RWDPPRD[Lys(CH2CO2H)2]K([AEEA-Palmitoyl(16-(5-tetrazolyl))])-NH2
modifications: lactam 1-6
SMILES: CC(=O)N[C@H]1CCCCNC(=O)C[C@@H](C(=O)N2CCC[C@H]2C(=O)N2CCC[C@H]2C(=O)N[C@@H](CCCNC(=N)N)C(=O)N[C@@H](CC(=O)O)C(=O)N[C@@H](CCCCN(CC(=O)O)CC(=O)O)C(=O)N[C@@H](CCCCNC(=O)COCCOCCNC(=O)CCCCCCCCCCCCCCCc2nnn[nH]2)C(N)=O)NC(=O)[C@H](Cc2c[nH]c3ccccc23)NC(=O)[C@H](CCCNC(=N)N)NC(=O)[C@@H](Cc2ccccc2)NC(=O)[C@H](Cc2c[nH]cn2)NC1=O
B9: Ac-c[Lys-His-D-Phe-Arg-Trp-Glu]-Pro-Pro-Arg-Asp-Lys(biscarboxymethyl)-Lys[(2-{2-[16-(tetrazol-5-yl)hexadecanoylamino]ethoxy}ethoxy)acetyl]-NH2 (peptide)
peptide: Ac-KH[dF]RWEPPRD[Lys(CH2CO2H)2]K([AEEA-Palmitoyl(16-(5-tetrazolyl))])-NH2
modifications: lactam 1-6
SMILES: CC(=O)N[C@H]1CCCCNC(=O)CC[C@@H](C(=O)N2CCC[C@H]2C(=O)N2CCC[C@H]2C(=O)N[C@@H](CCCNC(=N)N)C(=O)N[C@@H](CC(=O)O)C(=O)N[C@@H](CCCCN(CC(=O)O)CC(=O)O)C(=O)N[C@@H](CCCCNC(=O)COCCOCCNC(=O)CCCCCCCCCCCCCCCc2nnn[nH]2)C(N)=O)NC(=O)[C@H](Cc2c[nH]c3ccccc23)NC(=O)[C@H](CCCNC(=N)N)NC(=O)[C@@H](Cc2ccccc2)NC(=O)[C@H](Cc2c[nH]cn2)NC1=O
B10: Ac-c[Lys-His-D-Phe-Arg-Trp-Asp]-Pro-Pro-His-Ser-Lys(biscarboxymethyl)-Ser-Ser-Glu-Lys({2-[2-(16-carboxyhexadecanoylamino)ethoxy]ethoxy}acetyl)-NH2 (peptide)
peptide: Ac-KH[dF]RWDPPHS[Lys(CH2CO2H)2]SSEK([AEEA-C17 diacid])-NH2
modifications: lactam 1-6
SMILES: CC(=O)N[C@H]1CCCCNC(=O)C[C@@H](C(=O)N2CCC[C@H]2C(=O)N2CCC[C@H]2C(=O)N[C@@H](Cc2c[nH]cn2)C(=O)N[C@@H](CO)C(=O)N[C@@H](CCCCN(CC(=O)O)CC(=O)O)C(=O)N[C@@H](CO)C(=O)N[C@@H](CO)C(=O)N[C@@H](CCC(=O)O)C(=O)N[C@@H](CCCCNC(=O)COCCOCCNC(=O)CCCCCCCCCCCCCCCC(=O)O)C(N)=O)NC(=O)[C@H](Cc2c[nH]c3ccccc23)NC(=O)[C@H](CCCNC(=N)N)NC(=O)[C@@H](Cc2ccccc2)NC(=O)[C@H](Cc2c[nH]cn2)NC1=O

molecular target: T1, MC1 receptor (UniProt Q01726 1-317, limits assumed); experiment: 125I-NDP-α-MSH displacement, BHK-MC1 membranes (Assay IV);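 further: membrane incubations stopped by filtration, retained radioactivity counted, Ki fitted by nonlinear regression to binding curves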
T1 construct: whole, on cells; also called melanocortin receptor subtype 1; melanocortin receptor 1
T1 sequence (Q01726 whole entry): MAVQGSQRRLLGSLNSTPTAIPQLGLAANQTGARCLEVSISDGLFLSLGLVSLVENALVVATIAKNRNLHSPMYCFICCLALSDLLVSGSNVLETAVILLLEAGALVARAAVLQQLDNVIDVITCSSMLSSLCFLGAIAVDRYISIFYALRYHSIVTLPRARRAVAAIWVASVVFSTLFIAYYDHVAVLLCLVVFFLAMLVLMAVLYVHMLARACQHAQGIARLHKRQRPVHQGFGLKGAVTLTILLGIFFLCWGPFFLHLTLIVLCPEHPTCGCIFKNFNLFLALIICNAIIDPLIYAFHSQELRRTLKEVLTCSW
Experimental: The MC1 receptor binding assay was performed on BHK cell membranes stably expressing the MC1 receptor. […] Test compounds were dissolved in DMSO. […] Alternatively, HSA may be substituted with ovalbumin. The samples were incubated at 30° C. for 90 min. in Costar round-bottom microtiter plates. Incubation was terminated by filtration on a Packard harvester filtermate. […] The filters were washed with ice-cold 0.9% NaCl 8-10 times. […] The plates were counted in a Topcounter (1 min/well).
(§1) The data were analysed by non-linear regression analysis of binding curves, using the Windows™ program GraphPad™ Prism (GraphPad Software, USA).

Binder | Ki [µM]
Ac-[Dap]H[dF]RWDPPRDK(biscarboxymethyl(3))K([AEEA-Palmitoyl(16-(5-tetrazolyl))])-NH2 (lactam 1-6) | 1.83
Ac-[Orn]H[dF]RWDPPRDK(biscarboxymethyl)K(X2)-NH2 (lactam 1-6) | 2.34
Ac-[Dap]H[dF]RWEPPRDK(biscarboxymethyl(3))K([AEEA-Palmitoyl(16-(5-tetrazolyl))])-NH2 (lactam 1-6) | 3.85
Ac-[Orn]H[dF]RWDPPHEK(biscarboxymethyl)K(X3)-NH2 (lactam 1-6) | 8.6
Ac-[Orn]H[dF]RWDPPREK(biscarboxymethyl)SS-X5 (lactam 1-6) | 2.5

molecular target: T2, human MC4 receptor (human, UniProt P32245 1-332); experiment: 125I-NDP-α-MSH displacement, BHK-human MC4 membranes (Assay V);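 further: Filter-retained radioactivity read by gamma counting, with affinity obtained through non-linear regression fitting of the binding curves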
T2 construct: whole, on cells; Assayed as membranes of BHK cells stably expressing the receptor; also called melanocortin receptor subtype 4; melanocortin receptor 4
T2 sequence (P32245 whole entry): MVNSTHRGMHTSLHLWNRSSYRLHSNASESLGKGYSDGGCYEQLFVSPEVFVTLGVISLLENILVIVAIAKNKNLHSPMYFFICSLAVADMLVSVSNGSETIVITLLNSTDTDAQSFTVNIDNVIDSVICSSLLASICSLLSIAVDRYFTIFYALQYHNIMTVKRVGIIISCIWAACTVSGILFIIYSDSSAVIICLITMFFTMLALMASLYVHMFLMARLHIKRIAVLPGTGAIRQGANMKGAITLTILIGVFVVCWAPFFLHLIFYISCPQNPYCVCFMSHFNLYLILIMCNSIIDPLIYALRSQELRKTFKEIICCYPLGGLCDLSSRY
Experimental: The membranes were prepared from frozen or fresh cells that were homogenized in 20 mM HEPES pH 7.1, 5 mM MgCl₂ and 1 mg/ml bacitracin and centrifuged at 15000 rpm at 4° C., 10 min in a Sorvall RC 5B plus, SS-34 rotor. The supernatant was discarded, and the pellets were re-suspended in buffer, homogenized and centrifuged two more times. The final pellets were resuspended in the buffer mentioned above, and the protein concentration was measured and adjusted with buffer to 14 to 17 mg/ml and the membrane preparation were kept at −80° C. until assay. The assay was run directly on a dilution of this cell membrane suspension, without any further preparation. The BHK cell membranes are kept at −80° C. until assay, and the assay is run directly on a dilution of this cell membrane suspension, without further preparation. The suspension is diluted to give maximally 10% specific binding, i.e. to approx. 50-100 fold dilution. […] Test compounds were dissolved in DMSO and diluted in binding buffer. Radiolabelled ligand and membranes were diluted in binding buffer. The incubation was stopped by dilution with 2×100 μl ice-cold 0.9% NaCl. The radioactivity retained on the filters was counted using a Cobra II auto gamma counter.
as §1

Binder | Ki [µM]
Ac-EQ[dF]RW[Orn]PPRDK(biscarboxymethyl(3))K([AEEA-Palmitoyl(16-(5-tetrazolyl))])-NH2 (lactam 1-6) | 0.058
B1 | 0.024
Ac-EH[dF]RW[Orn]PPDK(biscarboxymethyl)K(X3)-NH2 (lactam 1-6) | 0.064
B2 | 0.021
B3 | 0.125
Ac-EH[dF]RW[Dab][Hyp][Hyp]RDK(biscarboxymethyl(3))K([AEEA-Palmitoyl(16-(5-tetrazolyl))])-NH2 (lactam 1-6) | 0.105
B4 | 0.025
Ac-[Dab]H[dF]RWDPPREK(biscarboxymethyl(3))SS-X5 (lactam 1-6) | 0.0125
Ac-[Dap]H[dF]RWDPPRDK(biscarboxymethyl(3))K([AEEA-Palmitoyl(16-(5-tetrazolyl))])-NH2 (lactam 1-6) | 0.00516
Ac-[Orn]H[dF]RWDPPRDK(biscarboxymethyl)K(X2)-NH2 (lactam 1-6) | 0.00085
Ac-[Dap]H[dF]RWEPPRDK(biscarboxymethyl(3))K([AEEA-Palmitoyl(16-(5-tetrazolyl))])-NH2 (lactam 1-6) | 0.0007
Ac-[Orn]H[dF]RWDPPHEK(biscarboxymethyl)K(X3)-NH2 (lactam 1-6) | 0.0034
Ac-EH[dF]RW[Orn]PPDK(biscarboxymethyl)K(X6)-NH2 (lactam 1-6) | 0.0086
B5 | 0.038
Ac-[Orn]H[dF]RWDPPREK(biscarboxymethyl)SS-X5 (lactam 1-6) | 0.00093
B6 | 0.025
B7 | 0.348
Ac-EH[dF]RW[Dap][Hyp][Hyp]RDK(biscarboxymethyl(3))K([AEEA-Palmitoyl(16-(5-tetrazolyl))])-NH2 (lactam 1-6) | 0.017
B8 | 0.00387
B9 | 0.179
B10 | 0.014
